Test results: patent publication US20250019444A1 (published 2025)

Target: T1, ULBP6 (NKG2D natural ligand) (Homo sapiens (Human), UniProt Q5VY80 26-218)
T1 sequence: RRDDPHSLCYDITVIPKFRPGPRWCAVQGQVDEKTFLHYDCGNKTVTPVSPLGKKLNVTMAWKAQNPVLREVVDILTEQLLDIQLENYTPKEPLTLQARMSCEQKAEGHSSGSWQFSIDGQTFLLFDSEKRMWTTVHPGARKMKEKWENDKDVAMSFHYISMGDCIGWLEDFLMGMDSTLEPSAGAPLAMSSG
Test: SPR, injection over captured mouse Fc-human NKG2D, 25 C
Source text: Briefly, mouse Fc-human NKG2D was captured using an anti-mouse Fc antibody immobilized on a CM5 chip at a density of approximately 100 RU. […] Biacore 8K evaluation software was used for all data analysis.

B1: soluble mouse Fc-human NKG2D dimer (Fc fusion, UniProt P26718 73-216, looked up)
chain: IWSAVFLNSLFNQEVQIPLTESYCGPCPKNWICYKNNCYQFFDESKNWYESQASCMSQNASLLKVYSKEDQDLLKLVKSYHWMGLVHIPTNGSWQWEDGSILSPNLLTIIEMQKGDCALYASSFKGYIENCSTPNTYICMQRTV
notes: also called mFc-hNKG2D; fusion protein of human NKG2D and murine Fc; not shown: murine Fc
- binding result: binds
